Patent publication US20170058036A1 (published 2017)
One block for each binder: values may come before it.

How the values were obtained:
[1] = molecular target: rat DEspR on rat neutrophils (rat); test: cell-based or functional assay
[2] = molecular target: rat DEspR on rat neutrophils (rat); test: cell-based or functional assay; remark: listed apart in the source
[3] = molecular target: T1, human dual endothelin-1/VEGF signal peptide receptor (DEspR) on intact cells (human, UniProt B0L3A2 1-85); test: FACS, binding to DEspR on intact human cells at 4° C
T1 construct: also called hDEspR; DEAR
T1 sequence: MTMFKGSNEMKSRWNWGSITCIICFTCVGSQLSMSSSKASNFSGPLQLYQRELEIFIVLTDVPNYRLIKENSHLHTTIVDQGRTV
Procedure: (§1) Binding was quantified by FACS with corresponding isotype labeled antibodies as background controls. […] Furthermore, 6G8 humanized monoclonal antibodies were developed using two different human IgG Fc regions-human IgG1 and hinge-stabilized human IgG4, thus affirming high-affinity binding.
Binding was determined by FACS analysis.
(§2) Neutrophils (50000/well) were incubated in the absence or presence of mAbs at 37° C. × 4 hrs and live cells counted by using Trypan blue. HUVEC-dependent angiogenesis (20,000 cells/well) was performed as described in the presence or absence of mAbs. Number of polygons and number of branch points were determined after 14 hrs of incubation at 37° C. ND, not done, indeterminate, value greater than upper limit of max dose used in these experiments.

[4] = molecular target: T1, human dual endothelin-1/VEGF signal …; test: FACS, AF-568-labeled mAb on Panc1 cells
Procedure: as §1, §2

[5] = molecular target: T1, human dual endothelin-1/VEGF signal …; test: saturation binding of AF568-labelled mAb to DEspR+ Panc1 cells, FACS
Procedure: Saturation binding curves of monoclonal antibody (mAb) binding to DEspR on Panc1 CSCs. […] Specific binding was determined by FACS analysis using 100,000 cells in 0.25 ml containing increasing concentrations of mAbs. Incubations were done at 4° C. for 20 min and immediately subjected to FACS analysis on a BDTM LSRII Flow cytometer. Each data point was performed in duplicate.
Fully human VH5/VK1 has a slightly better Kd than VH3/VK2 fully human composite antibodies. […] (FIG. 16).

EC50 [3]: 21.1 nM | EC50 [4]: 21.1 nM
B1: 6g8g7-derived IgG4 humanized monoclonal antibody 1 (antibody)
heavy: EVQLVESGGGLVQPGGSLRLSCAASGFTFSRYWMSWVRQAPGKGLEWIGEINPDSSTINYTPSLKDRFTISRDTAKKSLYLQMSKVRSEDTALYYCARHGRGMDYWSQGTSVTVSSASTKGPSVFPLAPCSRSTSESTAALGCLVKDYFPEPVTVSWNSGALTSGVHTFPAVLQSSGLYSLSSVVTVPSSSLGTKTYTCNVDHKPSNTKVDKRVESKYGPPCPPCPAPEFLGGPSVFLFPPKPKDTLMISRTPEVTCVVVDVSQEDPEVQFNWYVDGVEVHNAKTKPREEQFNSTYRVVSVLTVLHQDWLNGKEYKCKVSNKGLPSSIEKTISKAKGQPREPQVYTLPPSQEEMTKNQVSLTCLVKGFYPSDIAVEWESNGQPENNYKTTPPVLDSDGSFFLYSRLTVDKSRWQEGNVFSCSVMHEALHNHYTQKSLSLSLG
light: DIVLTQSPDILSVSLGERATVNCKASQNVDSNVAWYQQKPGHPPKLLIYSASYRYSRVPDRISGSGSGTDFTLTISNLQAEDVAVYYCQQYHSYPLLAFGAGTKLELKRTVAAPSVFIFPPSDEQLKSGTASVVCLLNNFYPREAKVQWKVDNALQSGNSQESVTEQDSKDSTYSLSSTLTLSKADYEKHKVYACEVTHQGLSSPVTKSFNRGEC
notes: Hinge-stabilized (S228P) human IgG4 / kappa, transiently expressed in HEK293; also called 6g8^IgG4 humab1; 6g8IgG4 humab1
Rat Neutrophil survival, IC50 [1]: 1.16 µg/mL | Rat activated Neutrophil survival, IC50 [2]: 1.16 µg/mL

B2: IgG1 6G8G7 humanized monoclonal antibody (antibody)
heavy: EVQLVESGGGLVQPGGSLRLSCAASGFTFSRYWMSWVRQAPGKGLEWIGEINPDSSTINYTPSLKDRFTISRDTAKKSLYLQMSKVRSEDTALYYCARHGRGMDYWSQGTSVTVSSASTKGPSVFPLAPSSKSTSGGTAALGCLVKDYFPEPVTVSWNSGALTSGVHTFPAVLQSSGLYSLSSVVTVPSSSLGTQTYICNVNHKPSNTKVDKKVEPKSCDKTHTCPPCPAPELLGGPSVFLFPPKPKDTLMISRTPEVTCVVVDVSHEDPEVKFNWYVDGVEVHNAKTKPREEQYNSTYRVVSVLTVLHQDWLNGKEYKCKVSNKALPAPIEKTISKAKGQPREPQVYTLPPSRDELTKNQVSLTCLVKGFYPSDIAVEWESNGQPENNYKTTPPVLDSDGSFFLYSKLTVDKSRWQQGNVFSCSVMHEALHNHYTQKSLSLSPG
light: B1 light
Rat Neutrophil survival, IC50 [1]: 6.98 µg/mL | Rat activated Neutrophil survival, IC50 [2]: 6.98 µg/mL

Kd [5]: ~33 nM
B3: 7C5B2 murine anti-human DEspR monoclonal antibody (antibody, V domains shown)
VH: QVQLKESGPGLVAPSQSLSITCTVSGFSLKSYAVSWVRQPPGKGLEWLGVIWGDGSTDYHSALISRLSISKDNSKSQFFLRLNSLQTDDTATYYCARGTGTGFAYWGQGTLVTVSA
VL: DVVMTQTPLSLPVSLGDQASISCRSSQSLVHSNGNTYLHWYLQKPGQSPKLLIYKVSNRFSGVPDRFSGSGSGTDFTLKISRVEAEDLGIYFCSQCTHIPWTFGGGTNLEIK
notes: Murine hybridoma antibody raised against the 9-aa N-terminal peptide of DEspR; An IgG2b isotype control was used with it; It was AF568-labelled in the FACS and imaging assays; also called 7C5-murine monoclonal antibody; lead mouse prototype anti-human DEspR monoclonal antibody

Kd [5]: ~33 nM
B4: 6G8G7 murine anti-DEspR monoclonal antibody (antibody, V domains shown)
VH: EVQLQESGGGLVQPGGSLKLSCAASGFDFSRYWMSWVRQAPGKGLEWIGEINPDSSTINYTPSLKDKFIISRDTAKKTLYLQMSKVRSEDTALYYCARHGRGMDYWSQGTSVTVSS
VL: DIVLTQTNQIMSASVGDRVSVTCKASQNVDSNVAWYQQKPGHSPKALIYSASYRYSRVPDRITGSGSGTDFTLTITNVQSKDLADYFCQQYHSYPLLAFGAGTKLELKR
